“Also recorded” adds a separate entry of the source. Ends that are not written are not given here.
Key:
Elk1 = assay: Elk1-luciferase reporter assay; format: cell-based, human; conditions: myristoylated peptide 2 h prior to PMA, control PMA-treated cells, FIG. 10C
Description: Elk1-luciferase reporter assay: Cells were co-transfected with the reporters pFA2-Elk1, pFR-Luc (Stratagene, La Jolla, Calif.) and pCMV-β-galactosidase, and other plasmids, as necessary. Cells were lysed; promoter activity was determined by luciferase assay and normalized on β-galactosidase.

recombinant human PKC-δ [1] = conditions: Nishikawa et al. 1997; read-out: reported Km for the commercial substrate; cited from earlier work
PKC-δ = PKC-δ (Homo sapiens, UniProt Q05655); assay: GST-hBVR pull-down of PKC-δ from cell lysate; format: binding; parameters: The human PKC-δ open reading frame was also cloned in the same vectors; expressed in transfected cells; host or cells: HEK 293A (PKC-δ); E. coli, pGEX-4T2 (GST-hBVR); conditions: 30 min and 120 min incubation, FIG. 2A
Chain of PKC-δ (Q05655 whole entry): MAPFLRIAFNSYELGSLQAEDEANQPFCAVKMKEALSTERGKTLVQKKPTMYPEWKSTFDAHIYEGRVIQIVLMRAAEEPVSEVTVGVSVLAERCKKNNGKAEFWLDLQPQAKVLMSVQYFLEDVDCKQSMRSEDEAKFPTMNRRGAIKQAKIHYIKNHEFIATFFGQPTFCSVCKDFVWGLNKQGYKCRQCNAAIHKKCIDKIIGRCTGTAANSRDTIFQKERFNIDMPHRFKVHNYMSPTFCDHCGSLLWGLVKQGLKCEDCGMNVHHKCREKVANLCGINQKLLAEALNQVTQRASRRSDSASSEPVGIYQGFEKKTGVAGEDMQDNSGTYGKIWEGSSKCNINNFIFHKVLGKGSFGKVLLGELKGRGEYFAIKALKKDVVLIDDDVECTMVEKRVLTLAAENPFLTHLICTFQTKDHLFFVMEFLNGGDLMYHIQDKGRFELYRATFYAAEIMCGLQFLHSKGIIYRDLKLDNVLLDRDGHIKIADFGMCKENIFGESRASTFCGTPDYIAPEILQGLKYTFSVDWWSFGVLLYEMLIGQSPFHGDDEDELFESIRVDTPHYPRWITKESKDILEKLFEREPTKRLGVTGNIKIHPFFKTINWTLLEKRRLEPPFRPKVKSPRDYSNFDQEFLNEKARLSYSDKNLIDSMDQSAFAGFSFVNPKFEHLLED
Description: Cell Culture, infection, transfection, GST pull-down and co-immunoprecipitation: HEK 293A cells were grown in Dulbecco's Modified Eagle Medium (Invitrogen) containing 10% fetal bovine serum and 1% penicillin-G/streptomycin for 24 h or until the cells reached 70% confluency. Depending on the experiment, cells were subsequently transfected with up to 5 μg of pcDNA3-hBVR or pcDNA3-PKC-δ plasmid using Transfectin Lipid Reagent (Bio-Rad, Hercules, Calif.) in 10 cm plates. Western blotting determined overexpression of hBVR or PKC-δ. To prepare si-hBVR or sc-hBVR (containing a randomized variant of the sihBVR sequence), pSuper-Retro-si-hBVR (Miralem et al., “Small Interference RNA-Mediated Gene Silencing of Human Biliverdin Reductase, But Not That of Heme Oxygenase-1, Attenuates Arsenite-Mediated Induction of the Oxygenase and Increases Apoptosis in 293A Kidney Cells,” J. Biol. Chem. 280:17084-17092 (2005), which is hereby incorporated by reference in its entirety) or sc-hBVR, respectively, were introduced into 293A cells for packaging, and the si-hBVR or sc-hBVR retrovirus were titrated using NIH3T3 cells. […] Proteins were separated by SDS-page and detected by immunoblotting using anti-PKC-δ antibodies.

recombinant human PKC-δ [2] = assay: PKC-δ kinase assay in vitro (p81 filter / autoradiography); format: biochemical
Description: Measurement of PKC-δ activity: In vitro kinase activity assays were performed with active recombinant human PKC-δ kinase (as a GST fusion protein). PKC-δ assay in vitro was performed using 5 ng purified enzyme in a 50 μl assay containing 50 mM HEPES pH 7.4, 10 mM MgCl2, 0.2 mM DTT, sonicated lipid activators (0.5 μg phosphatidylserine and 0.05 μg diacylglycerol) or lipid activators plus PMA (as indicated in appropriate experiments) and PKC-δ substrates. The reaction was started by the addition of 50 μM ATP labeled with 5 μCi [γ-^32P]-ATP. Incubation was performed for 15 min at 30° C., unless otherwise stated. The reaction was terminated on ice, either by the addition of Laemmli buffer followed by SDS-PAGE, transferred to PVDF membrane, and autoradiography, or by the addition of 1 volume 10% phosphoric acid for p81 transfer as described below. For autophosphorylation of PKC-δ 20 μM ATP was used to start the 40-min reaction.
When hBVR or its mutants were tested for their effect on PKC-δ activity, they were pre-incubated for 5 min at room temperature with the PKC prior to substrate addition. The hBVR-derived peptides were used at concentrations indicated in appropriate figures.
When hBVR or its mutants were assayed as the sole substrates for PKC, the incubation conditions were as described above and the incubation was for 40 min at 30° C. unless specified otherwise. The reaction was terminated by the addition of Laemmli buffer, and the reaction products were detected by SDS-PAGE, transfer to PVDF membrane, and autoradiography.
Measurement of PKC-δ activity: PKC-δ assay in vitro was performed using 0.1 ng/μl purified recombinant human PKC-δ kinase with reaction conditions specified by the manufacturer. Effector molecules such as hBVR or peptides were added 5 min prior to substrate. The reaction was started by the addition of [γ-^32P]-ATP (Lerner-Marmarosh et al., “Human Biliverdin Reductase: A Member of the Insulin Receptor Substrate Family with Serine/Threonine/Tyrosine Kinase Activity,” Proc. Natl. Acad. Sci. U.S.A. 102(20):7109-7114 (2005), which is hereby incorporated by reference in its entirety). Reaction products were detected either by gel electrophoresis and autoradiography or by the p81 filter assay. PKC-δ activity on agarose beads was also measured. Cell lysates were immunoprecipitated with anti-PKC-δ antibody followed by protein A/G agarose. The immunoprecipitates were used in kinase reactions containing 50 μM PKC-δ specific peptide substrate as above; incorporation of ^32P was measured by p81 method.

Molecule: SAFAGFSFVNPKFEHLLED (also: myristoylation, place not given here) [myristoylated PKC-δ bulky Ring motif C-terminal peptide]
- inhibition of Elk1 dependent luciferase expression (Elk1): 90%

Molecule: ARRKRKGSFFGG (PKC-delta substrate) [commercial peptide identified by Nishikawa as the optimal substrate for PKC-δ]
- Km (recombinant human PKC-δ [1]): 0.98 µM

B1: hBVR: purified E. coli expressed human biliverdin reductase (protein)
chain: MNAEPERKFGVVVVGVGRAGSVRMRDLRNPHPSSAFLNLIGFVSRRELGSIDGVQQISLEDALSSQEVEVAYICSESSSHEDYIRQFLNAGKHVLVEYPMTLSLAAAQELWELAEQKGKVLHEEHVELLMEEFAFLKKEVVGKDLLKGSLLFTSDPLEEDRFGFPAFSGISRLTWLVSLFGELSLVSATLEERKEDQYMKMTVCLETEKKSPLSWIEEKGPGLKRNRYLSFHFKSGSLENVPNVGVNKNIFLKDQNIFVQKLLGQFSEKELAAEKKRILHCLGLAEEIQKYCCSRK
modifications: GST tag; Homo sapien
notes: purified E. coli expressed human biliverdin reductase
- binding of PKC-δ from cell lysates (PKC-δ): selectively bound PKC-δ
- PKC-δ kinase activity toward MBP in presence of hBVR (recombinant human PKC-δ [2]; 2 μg GST-hBVR, 12.5 μM MBP, FIG. 1B): increased kinase activity
- PKC-δ autophosphorylation in presence of hBVR (recombinant human PKC-δ [2]; FIGS. 1A, 1C, 7C): enhanced; also recorded: increased

Source: patent US9598677B2, “Use of human biliverdin reductase and fragments thereof for the treatment of protein kinase C-delta and ERK related conditions” (University of Rochester, priority 2009, dated 2017)
